# Assay: yeast display, Sf9 membrane polyspecificity reagent, FACS + sequencing; frameworks hold sequencing errors
# How it was run: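 Synthetic nanobody libraries on Saccharomyces cerevisiae BJ5465 were galactose-induced for 36–48 hours, stained 1 hour at 4 °C with 10% biotinylated, detergent-solubilized Sf9 membrane reagent and enriched on streptavidin microbeads. FACS then separated cells into low and high (top ~1%) gates by anti-HA (expression) and streptavidin (reagent binding) fluorescence. Genes were colony-PCR amplified, MiSeq 2 × 250 sequenced and CDR-length filtered. A clone's polyreactivity label is that of its gate of origin.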
row,Sequence,polyreactivity (PSR sort gate)
1,QVQLVESGGGLVQAGGSLRLSCAASGRTSWANVMGWYRQAPGKERELVAAISSSGDSTYYADSVKGRFTISRDNAKNTVYLQMNSLKPEDTAVDYCAAGYELSDLAILDYRYDYWGQGSQVTVSS,low polyreactivity
2,QVQLVESGGGLVQAGGSLRLSCAASGRTVNIYAMGWYRQAAGKERELVADISYSDGSTDYADSVKGRFTISRDNAKNTVYLQMNSLKPEDTAVYYCAAYYYYYYGFGQRYYSWGQGTQVTVSS,low polyreactivity
3,QVQLVESGGGLVQAGGSLRLSCAASGRTVRVYAMGWYRQAPGKERELVAAINGGGSTNYADSVKGRFTISRDSAKNTVYLQMNSLKPEDTAVYYCNATGRRSKRIYDYWGQGTQVTVSS,high polyreactivity
4,QVQLVESGGGLVQAGGSLRLSCAASGRTVVNAMGWYRQAPGKERELVAAISSNGGRTYYADSVKGRFTISRDNAKNTVYLQINSLKPEDTAVYYCAAGYIWFRKIQFDYWGQGTQVTVSS,high polyreactivity
5,QVQLVESGGGLVQAGGSLRLSCAASGRTVYRYAMGWYRQAPGKERELVAAITGSGSSTYYADSVKGRFTISRDNAKNTVYLQMNSLKPEDTAVYYCAAARPRLGSAGKFGYWGQGTQVTVSS,high polyreactivity
6,QVQLVESGGGLVQAGGSLRLSCAASGRTYGEYGMGWYRQAPGKERELVAAISSTGSTYYADSVKGRFTISRDNAKNTVYLQMNSLKPEDTAVYYCAAEIVRYGDEYDYWGQGTQVTVSS,low polyreactivity
7,QVQLVESGGGLVQAGGSLRLSCAASGRTYLPNDMGWYRPAPGKERELVAAITDSGGDTYYADSVKGRFTISRDIAKNTVYLQMNSLKPEDTAVYYCAADYYYYGSYYPVEYWGHGTQVTVSS,high polyreactivity
8,QVQLVESGGGLVQAGGSLRLSCAASGRTYNVMGWYRQAPGKERYLVAAITWGGGSTHYADSVKGRFTISRDNAKNTVYLQMISLKPEDTAVYYCAADLLYKSTRVDYWGQGTQVTVSS,low polyreactivity
9,QVQLVESGGGLVQAGGSLRLSCAASGRTYRYAMGWYRQPPGKERELVAGISSSGTSTNYADSVKGRFTISRDNAKNTVYLQMNSLKPEDTAVYYCNADIIWFPADYLYDYWGQGTQVTVSS,low polyreactivity
10,QVQLVESGGGLVQAGGSLRLSCAASGRTYSNAMGWYRQAPGKELEFVASISSGGRTKDADSVKGRFTISRDNAKNTVYLQMNSLKPEDTADYYCNTVPGRYRTFDYWGQGTKVTVSS,high polyreactivity
11,QVQLVESGGGLVQAGGSLRLSCAASGRTYTYYAMGWYRQAPGKERELVAAISDSGGRTYYADSVKGRFTISRDNAKNTVYLQMNSLKPEDTAVYYCAATTYPYYRFDYWGQGTQVTVSS,high polyreactivity
12,QVQLVESGGGLVQAGGSLRLSCAASGRTYVKNAMGWYRQAPGKERELVAAITSGGSTYYADSVKGRFTISRDNAKNTVYLQMNSLKPEDTAVYYCAAAWSSRYVSRYYYWGQGTQVTVSS,high polyreactivity
13,QVQLVESGGGLVQAGGSLRLSCAASGRTYYPNAIGWYRQAPGKEMDLVADITYSGASTYYADSVKGRFTISRDNAKNTVYLQMNSLKPEDTAVYYCAVPGATSYFAYDSWGQGTQVTVSS,low polyreactivity
14,QVQLVESGGGLVQAGGSLRLSCAASGRVLPPNAIGWYRQAPGKERELVAAINWSSGRTYYADSVKGRFTISRDYAKNSVYLQMNSLKPEDTAVYDCAKAYRYAYGYDYWGQGTQVTVSS,high polyreactivity
15,QVQLVESGGGLVQAGGSLRLSCAASGRVRYAIGWYRQAPGKESELVASITRRAGNTYYADSVKGRFTISRDNAKNTVYLQMNSLKPEDTAVYYCAAADVGAYRGNYWGQGTLVTVSS,high polyreactivity
16,QVQLVESGGGLVQAGGSLRLSCAASGSARYAMGWYRQATGNERELVAAISRRGGSTYYADSVKGRFTISRDNATKTVYLHMNSLKPEDTAVYYCAADGRISYDYWGQGTQVTVSS,low polyreactivity
17,QVQLVESGGGLVQAGGSLRLSCAASGSARYDMGWYRQPNGKERELVAAISRRGGSTFYADSVKGRFTISRDNAKNTVYLQMNSLKPEDTAVYYCAADGRISYDYWGQGTQVTVSS,low polyreactivity
18,QVQLVESGGGLVQAGGSLRLSCAASGSASRGNAMGWYRQAPGKERELVATISQSGGNTFYADSVKGRFTISRDNAKNSVYLQMNSLKPEDTAVYYCAAGRYWFGWYDYWGQGTQVTVSS,high polyreactivity
19,QVQLVESGGGLVQAGGSLRLSCAASGSIAMGWYRQAPGKERELVATISSSGGSTYYADSVKGRFTISRDNAKNTVYLQMNSLKPEDTAVYYCNTQAVYGGGEGGYDYWGQGTQVTVSS,low polyreactivity
20,QVQLVESGGGLVQAGGSLRLSCAASGSICAFYGMRWYRQAPGKERELVAAITRSGGSTYYADSVKGRFTISRDNAKNTVYLQMNSLKAEDTAVSYCAKRPHHGSTKYNYWGQGTQVTVSS,low polyreactivity
21,QVQLVESGGGLVQAGGSLRLSCAASGSICYDDMGWYSQAPGKERELVAAITWSGGSTYYADSVKGRFTISRDNAKNTVYLQMNSLKPEDTAVYYCAAIFGYGSTWWRWGKDDYWGQGTQVTVSS,high polyreactivity

row,Sequence,polyreactivity (PSR sort gate)
1,QVQLVESGGGLVQAGGSLRLSCAASGSIDGYAMGWYRQAPGKERELVAAISKGGGNTYYADSVKGRFTISRDNAKNTVYLQMNSLKPEDTAVYYCAARRQIIWGQGTQVTVSS,high polyreactivity
2,QVQLVESGGGLVQAGGSLRLSCAASGSIFAANAMGWYRQAPGKERELVAAITRGGRTYYADSVKGRFTISRDNAKNTVYLQMNSLKPEDTAVYYCAAYVFSKREYYRYDYWGQGTQVTVSS,high polyreactivity
3,QVQLVESGGGLVQAGGSLRLSCAASGSIFAAYAKGWYIQAPGKERELVAAISDRGGSTYYADSVKGRFTISRDNSKITVYLQMNSLKPEDTAVYYCATSVFDVRGGPFYYWGQGTQVNVSS,high polyreactivity
4,QVQLVESGGGLVQAGGSLRLSCAASGSIFAAYVMGWYRQAPGKERELVAAISYSGGGTYYADSVKGRFTISRDNAKNTVYLQMNSLKPEDTAVYYCAADFGVFKSARYYYWGQGTQVTVSS,low polyreactivity
5,QVQLVESGGGLVQAGGSLRLSCAASGSIFADYTMGWYRQAPGKERELVAAITSGGSTYYADSVKGRFTISRDNAKNTVYLQMNSLKPEDTAVYYCAAYYGGRGYWGQGTQVTVSS,low polyreactivity
6,QVQLVESGGGLVQAGGSLRLSCAASGSIFAENAMGCYRQAPGKERELVAAITRSGGSTYYADSVKGRFTISRDNAKNTVYLQMNSLKPEDTAVYYCAAREIASDDWGPDDYWGQGTQVTVSS,low polyreactivity
7,QVQLVESGGGLVQAGGSLRLSCAASGSIFAEYAMGWYRQAPGKERELVAAINGGGSTYYADSVKGRFTISRDNAKNTVYLEMNSLKPEDTAVYYCAAEKYTSWYSFWGYLYDYWGQGTQVTVSS,high polyreactivity
8,QVQLVESGGGLVQAGGSLRLSCAASGSIFAFYAMGLYRQAPGKERELVAAITASGGRTYYADSVKGRFTISRDIAKNTVYLQMNSLKPEDTAVYYCAAERQTIYIGLYGYPGWSQYNYWGQGTQVTVSS,low polyreactivity
9,QVQLVESGGGLVQAGGSLRLSCAASGSIFAFYAMGRYRQAPGKERELVAAISYNGGSTYYADSVKGRFTISRDNAKNTVYLQMNSLKAEDTAVYYCAAYHFRAPSEYDYWGQGTQVTVSS,low polyreactivity
10,QVQLVESGGGLVQAGGSLRLSCAASGSIFAFYVMGWYRQAPGKERELVAAINRGGTNTYYADSVKGRFTISRDNGKNTVYLQMNSLKPEDTAVYYCAAQRYGGMDYWGQGTQVTVSS,high polyreactivity
11,QVQLVESGGGLVQAGGSLRLSCAASGSIFAGNAMGWYCHAPGKERELVAAIRYGGTSTYYADSVKGRFTISRDNAKNTVYLQMNSLIPEDTAVYYCAATDWWGYYYWGQGTQVTVSS,high polyreactivity
12,QVQLVESGGGLVQAGGSLRLSCAASGSIFAGNAMGWYRQAPGKERELVAAISRRGGSTYYADSVKGRFTISRDNAKNTVYLQMNSLKPEDTAVYYCNALLRYAYHAAYGYWGQGPQVTVSS,high polyreactivity
13,QVQLVESGGGLVQAGGSLRLSCAASGSIFAGYAMGWYRKAPGKERELVAVISSTGSTYYADSVKGRFTISRDNAKNTVYLQMNSLKTEDTAVYYCNAYRYWSPGYDYWGQGTQVTVSS,low polyreactivity
14,QVQLVESGGGLVQAGGSLRLSCAASGSIFAGYAMGWYRPAPGKERELVAAINWTGDSTYYADSVKGRFTISRDNAKNTVYLQMNSLKPEDTAVYYCAAIRRQKGLWDYYYWGQGTQVTVSS,low polyreactivity
15,QVQLVESGGGLVQAGGSLRLSCAASGSIFAGYAMGWYRQAPGKERELVAAISSSGSRTYYADSVKGRFTISRDNAKNTVYLHMNSLKPEDTAVYYCATQSWVRYGQPEFDYWGQGTQVTVSS,high polyreactivity
16,QVQLVESGGGLVQAGGSLRLSCAASGSIFAGYAMGWYRQAPGKERELVAAITSSGGSTYYADSVKGRFTISRDNAKNTVYLQMTSLKPEDTAVYYCAKDKLILYRVGSDYWGQGTQVTVSS,low polyreactivity
17,QVQLVESGGGLVQAGGSLRLSCAASGSIFAHYAMGWYRQAPGKERELVAAISWGGGRTYYADSVKGRFTISRDNAKNTVYLQMNSLKPEDTAVYYCAARAANKSNYWGQGTQVTVSS,low polyreactivity
18,QVQLVESGGGLVQAGGSLRLSCAASGSIFAINAMGWYRQAPGKERELVAAIRSGGRTYSADSEKGRFTISRDNAKITVYLQMNSLKPEDTAVYYCTDGGKWIGSDYWGQGTQVTVSS,high polyreactivity
19,QVQLVESGGGLVQAGGSLRLSCAASGSIFAINAMGWYRQAPGKERELVAGITSGGSTYYADSVKGRFTISRDNAKNTVYLQMNSLKPEDTAVYYCAVQVVRSWLVTYYYWGQGTQVTVSS,high polyreactivity
20,QVQLVESGGGLVQAGGSLRLSCAASGSIFAIYTMGWYRQAPGKVRELVAGITKSGGNTYYADSVKGRFTISRDNAKNTVYLQMNSLKPEDTSVYYCAASQYEYYDGWYRYDYWGQGTQVTVSS,high polyreactivity

# Source: the nanobody polyreactivity screen of Harvey et al. (2022)
